Assay [1] addresses VEGF165 Protein, Human, Cynomolgus, Recombinant, HPLC-verified (Sino Biological) (Human, Cynomolgus, UniProt P15692-4 27-191). The experiment in a line: competition ELISA, VEGF165 coated, competitor biotin-labeled VEGFR2. The procedure: (§1) 100 μL of 2N H₂SO4 stop solution was added to each well to terminate the substrate reaction.
Background: In an ELISA, binding on a coated surface is turned into a signal by an enzyme label.

The target in assay [2] is T1, Biotinylated Human VEGF165 Protein, His, Avitag (Acro Biosystems) (human, UniProt P15692-4 27-191, biotin-labeled (site not stated; Avitag)).
T1 construct: also called biotin-labeled VEGF165; not shown: His tag and Avitag
The experiment in a line: competition ELISA, VEGFR1 coated (competitor), biotin-labeled VEGF165 detected. Here is the method: as §1

In assay [3] the target is T2, VEGF 121 Protein, Human, Recombinant (Sino Biological) (human, UniProt P15692-9 27-147).
T2 sequence (looked up): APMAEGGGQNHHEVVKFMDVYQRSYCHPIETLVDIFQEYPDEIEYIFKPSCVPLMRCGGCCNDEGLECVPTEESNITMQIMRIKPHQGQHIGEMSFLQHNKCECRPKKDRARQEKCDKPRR
The experiment in a line: competition ELISA, VEGF121 coated, competitor biotin-labeled VEGFR2.

Assay [4] concerns the target T1, Biotinylated Human VEGF165 Protein, …. The experiment in a line: bridging ELISA: PD-L1 coated, sample, then biotin-labeled VEGF165.

The IC50 is the concentration that gives 50% inhibition.

B1: bispecific fusion protein 12VF2 (bispecific antibody, human IgG1, kappa)
light: EIVLTQSPGTLSLSPGERATLSCRASQRVSSSYLAWYQQKPGQAPRLLIYDASSRATGIPDRFSGSGSGTDFTLTISRLEPEDFAVYYCQQYGSLPWTFGQGTKVEIKRTVAAPSVFIFPPSDEQLKSGTASVVCLLNNFYPREAKVQWKVDNALQSGNSQESVTEQDSKDSTYSLSSTLTLSKADYEKHKVYACEVTHQGLSSPVTKSFNRGEC
heavy: EVQLVESGGGLVQPGGSLRLSCAASGFTFSRYWMSWVRQAPGKGLEWVANIKQDGSEKYYVDSVKGRFTISRDNAKNSLYLQMNSLRAEDTAVYYCAREGGWFGELAFDYWGQGTLVTVSSASTKGPSVFPLAPSSKSTSGGTAALGCLVKDYFPEPVTVSWNSGALTSGVHTFPAVLQSSGLYSLSSVVTVPSSSLGTQTYICNVNHKPSNTKVDKRVEPKSCDKTHTCPPCPAPEFEGGPSVFLFPPKPKDTLMISRTPEVTCVVVDVSHEDPEVKFNWYVDGVEVHNAKTKPREEQYNSTYRVVSVLTVLHQDWLNGKEYKCKVSNKALPASIEKTISKAKGQPREPQVYTLPPSREEMTKNQVSLTCLVKGFYPSDIAVEWESNGQPENNYKTTPPVLDSDGSFFLYSKLTVDKSRWQQGNVFSCSVMHEALHNHYTQKSLSLSPGKGGGGSGGGGSSDTGRPFVEMYSEIPEIIHMTEGRELVIPCRVTSPNITVTLKKFPLDTLIPDGKRIIWDSRKGFIISNATYKEIGLLTCEATVNGHLYKTNYLTHRQTNTIIDVVLSPSHGIELSVGEKLVLNCTARTELNVGIDFNWEYPSSKHQHKKLVNRDLKTQSGSEMKKFLSTLTIDGVTRSDQGLYTCAASSGLMTKKNSTFVRVHE
Consider B1, for which the half-inhibitory concentration (IC50) in assay [1] worked out at 3.5 nM; in assay [2], 5.05 nM; in assay [3], 3.29 nM.

B2: SG1202 (printed 'a PD-L2 antibody 1'; used as PD-L1 antibody, apparently PD-L1 antibody 2) (antibody, V domains shown)
VH: EVQLVESGGGLVQPGGSLRLSCAASGFTFSRYWMSWVRQAPGKGLEWVANIKQDGSEKYYVDSVKGRFTISRDNAKNSLYLQMNSLRAEDTAVYYCAREGGWFGELAFDYWGQGTLVTVSS
VL: EIVLTQSPGTLSLSPGERATLSCRASQRVSSSYLAWYQQKPGQAPRLLIYDASSRATGIPDRFSGSGSGTDFTLTISRLEPEDFAVYYCQQYGSLPWTFGQGTKVEIK
notes: Only variable regions are tied to SG1202; also called PD-L1 antibody SG1202; antibody SG1202
On to B2, for which the binding result in assay [4] is “no binding”.

Source of the values: patent publication US20240294645A1 (HANGZHOU SUMGEN BIOTECH, published 2024).
